Results published in the supplement of paper PMC7125110.
± gives the standard error. For part of these data: Fewer inactive variants are shown than the library holds.

B1: glmS ribozyme (parent)
chain: AUAAAAGCGCCAGAACUACAGAAAUGUAGUUGACGAGGAGGAGGUUUAUCGAAUUUUCGGCGGAUGCCUCCAAA

How the values were obtained:
Conditions in all cases: with glucosamine-6-phosphate
glucosamine-6-phosphate [1] = variants of: B1; experiment: self-cleavage kobs at 40 uM GlcN6P; higher = faster cleavage; RNA array
Procedure, shortened: (§1)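 Tiles of sequenced MiSeq chips were imaged over ~14 h at 37 °C. On them, barcoded ribozyme variants had been transcribed in situ by E. coli RNA polymerase and were tracked via a hybridised Cy3 probe while glucosamine-6-phosphate (40 μM to 10 mM) in HEPES/KCl/Mg(OAc)2 buffer flowed in. Per-tile medians, normalised to baseline and to non-cleaving reference variants, were fit to one- or two-exponential decays for kobs, and weighted Michaelis–Menten fits gave kcat and KM.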

glucosamine-6-phosphate [2] = variants of: B1; experiment: self-cleavage kobs at 2500 uM GlcN6P; higher = faster cleavage; RNA array
Procedure, shortened: as §1

glucosamine-6-phosphate [3] = variants of: B1; experiment: self-cleavage kobs at 10000 uM GlcN6P; higher = faster cleavage; RNA array
Procedure, shortened: as §1

glucosamine-6-phosphate [4] = variants of: B1; experiment: KM; higher = weaker cofactor use; RNA array
Procedure, shortened: as §1

glucosamine-6-phosphate [5] = variants of: B1; experiment: self-cleavage kobs at 160 uM GlcN6P; higher = faster cleavage; RNA array
Procedure, shortened: as §1

glucosamine-6-phosphate [6] = variants of: B1; experiment: self-cleavage kobs at 640 uM GlcN6P; higher = faster cleavage; RNA array
Procedure, shortened: as §1

glucosamine-6-phosphate [7] = variants of: B1; experiment: kcat; higher = faster cleavage; RNA array
Procedure, shortened: as §1

Row | Variant | self-cleavage kobs at 40 uM GlcN6P (glucosamine-6-phosphate [1]) [s⁻¹] | self-cleavage kobs at 2500 uM GlcN6P (glucosamine-6-phosphate [2]) [s⁻¹] | self-cleavage kobs at 10000 uM GlcN6P (glucosamine-6-phosphate [3]) [s⁻¹] | KM (glucosamine-6-phosphate [4]) [µM] | self-cleavage kobs at 160 uM GlcN6P (glucosamine-6-phosphate [5]) [s⁻¹] | self-cleavage kobs at 640 uM GlcN6P (glucosamine-6-phosphate [6]) [s⁻¹] | kcat (glucosamine-6-phosphate [7]) [s⁻¹]
1 | G7U C11U A33U G40C | < 1e-05 | < 1e-05 | < 1e-05 | – | – | – | –
2 | G43A C61U C71A | < 1e-05 | – | – | – | – | – | –
3 | A36C G51U | – | – | – | 10.4 ± 3.3 | – | – | –
4 | C11A G44C | < 1e-05 | < 1e-05 | – | – | < 1e-05 | < 1e-05 | –
5 | C11U C71U | 0.000116 ± 4.3e-05 | 0.000796 ± 0.00014 | 0.00102 ± 0.0002 | 1030 ± 320 | 0.000143 ± 2.6e-05 | 0.000418 ± 7.1e-05 | 0.00111 ± 0.0002
6 | G40U G41U U47G G62U G63U | < 1e-05 | – | < 1e-05 | – | – | – | –
7 | U31G C58G | – | 7.65e-05 ± 1.2e-05 | 0.000119 ± 1.3e-05 | 1100 ± 400 | – | 5.51e-05 ± 1.3e-05 | 0.000125 ± 1.3e-05
8 | G32A C68U | – | 0.000149 ± 1.9e-05 | 0.000251 ± 2e-05 | 2170 ± 300 | – | 7.37e-05 ± 1.1e-05 | 0.0003 ± 1.7e-05
9 | U65A C71U | 0.000139 ± 2.2e-05 | 0.0011 ± 0.0002 | 0.00301 ± 0.00053 | – | 0.000277 ± 4.1e-05 | 0.00117 ± 0.00012 | 0.00196 ± 0.00076
10 | A33G C61G A64C | < 1e-05 | – | < 1e-05 | – | – | – | –
11 | A36U U49G | < 1e-05 | 3.43e-05 ± 1.7e-05 | – | – | – | – | 2.84e-05 ± 1.2e-05
12 | G38U C71A | – | – | – | 35.8 ± 15 | – | – | –
13 | A53C U65G | – | 0.000555 ± 6.7e-05 | 0.00104 ± 0.0001 | 3420 ± 810 | 8.25e-05 ± 1.4e-05 | 0.000197 ± 2.5e-05 | 0.00136 ± 0.0002
14 | C11U A12U A64U | < 1e-05 | – | – | – | – | – | –
15 | A52U G66A | – | 5.37e-05 ± 1.4e-05 | 0.000185 ± 2.9e-05 | – | – | – | 0.000745 ± 0.00034
16 | U30G U55G | 0.00025 ± 5.1e-05 | 0.00378 ± 0.00086 | 0.00866 ± 0.0016 | 1440 ± 590 | – | 0.00222 ± 0.00047 | 0.00756 ± 0.0019
17 | U54C C67U | 0.000255 ± 4.3e-05 | 0.00157 ± 0.00051 | 0.0047 ± 0.0014 | – | 0.000586 ± 0.00012 | 0.000928 ± 0.00027 | –
18 | A15C U45C A53G U69C | < 1e-05 | 0.000198 ± 4.6e-05 | 0.000288 ± 8.5e-05 | 3740 ± 1200 | – | 5.45e-05 ± 2e-05 | 0.000427 ± 8e-05
19 | A33U C34A | < 1e-05 | < 1e-05 | < 1e-05 | – | < 1e-05 | < 1e-05 | –

Row | Variant | self-cleavage kobs at 40 uM GlcN6P (glucosamine-6-phosphate [1]) [s⁻¹] | self-cleavage kobs at 2500 uM GlcN6P (glucosamine-6-phosphate [2]) [s⁻¹] | self-cleavage kobs at 10000 uM GlcN6P (glucosamine-6-phosphate [3]) [s⁻¹] | KM (glucosamine-6-phosphate [4]) [µM] | self-cleavage kobs at 160 uM GlcN6P (glucosamine-6-phosphate [5]) [s⁻¹] | self-cleavage kobs at 640 uM GlcN6P (glucosamine-6-phosphate [6]) [s⁻¹] | kcat (glucosamine-6-phosphate [7]) [s⁻¹]
20 | G29A C58A | – | 0.000126 ± 2.9e-05 | 0.00016 ± 3e-05 | 875 ± 32 | – | 7.35e-05 ± 1.6e-05 | 0.000173 ± 2.2e-06
21 | C10A G13A | < 1e-05 | – | – | – | < 1e-05 | – | < 1e-05
22 | G35U G37U G63U U65C | < 1e-05 | – | – | – | – | – | –
23 | G13A A33C C50A C71U | < 1e-05 | < 1e-05 | – | – | – | – | –
24 | U69C C70A | – | 4.46e-05 ± 2.2e-05 | 5.64e-05 ± 1.2e-05 | – | – | 7.51e-05 ± 2e-05 | 5.97e-05 ± 1.3e-05
25 | C16U U55A | 0.000949 ± 0.00012 | 0.0131 ± 0.0022 | 0.0419 ± 0.0089 | – | 0.00192 ± 0.00041 | 0.00568 ± 0.0014 | –
26 | G7A A14G | – | 3.92e-05 ± 1.5e-05 | 7.23e-05 ± 6.8e-06 | 3550 ± 470 | – | – | 9.79e-05 ± 3.9e-06
27 | C50U U57A | < 1e-05 | – | < 1e-05 | 397 ± 84 | – | – | 1.46e-05 ± 7e-07
28 | A12C G41C | – | 7.35e-05 ± 3.2e-05 | 4.45e-05 ± 1.1e-05 | – | – | – | 4.9e-05 ± 9.3e-06
29 | U46A U56G | – | 0.000603 ± 0.00011 | 0.00183 ± 0.00029 | – | 9.87e-05 ± 1.5e-05 | 0.000283 ± 6.8e-05 | 0.00195 ± 0.00071
30 | G63C G66C | < 1e-05 | < 1e-05 | < 1e-05 | – | < 1e-05 | < 1e-05 | –
31 | G29U A33U | – | 2.87e-05 ± 9.6e-06 | 4.97e-05 ± 6.7e-06 | 3280 ± 300 | – | – | 6.61e-05 ± 1.9e-06
32 | A6G A33U A53U | < 1e-05 | – | < 1e-05 | – | – | – | –
33 | G35C A48G | < 1e-05 | < 1e-05 | – | – | < 1e-05 | – | –
34 | U56G C61U | < 1e-05 | – | – | – | – | – | < 1e-05
35 | U55G U57A | – | 0.000124 ± 1.5e-05 | 0.000203 ± 2e-05 | 2520 ± 190 | – | 5.17e-05 ± 1e-05 | 0.000252 ± 8.2e-06
36 | A6G A64C | < 1e-05 | – | < 1e-05 | – | < 1e-05 | < 1e-05 | –
37 | U31G U45A A52G | – | 0.000361 ± 0.00013 | 0.000604 ± 8.7e-05 | 4890 ± 1500 | – | – | 0.000908 ± 0.00012
38 | A52C C67A C68G | – | – | – | – | – | – | 2.5e-05 ± 1.2e-05
